Target: T1, human gastric inhibitory peptide receptor (hGIPR) (Homo sapiens, UniProt P48546)
T1 construct: expressed in transfected cells; host or cells: HEK293
T1 sequence (P48546 22-466): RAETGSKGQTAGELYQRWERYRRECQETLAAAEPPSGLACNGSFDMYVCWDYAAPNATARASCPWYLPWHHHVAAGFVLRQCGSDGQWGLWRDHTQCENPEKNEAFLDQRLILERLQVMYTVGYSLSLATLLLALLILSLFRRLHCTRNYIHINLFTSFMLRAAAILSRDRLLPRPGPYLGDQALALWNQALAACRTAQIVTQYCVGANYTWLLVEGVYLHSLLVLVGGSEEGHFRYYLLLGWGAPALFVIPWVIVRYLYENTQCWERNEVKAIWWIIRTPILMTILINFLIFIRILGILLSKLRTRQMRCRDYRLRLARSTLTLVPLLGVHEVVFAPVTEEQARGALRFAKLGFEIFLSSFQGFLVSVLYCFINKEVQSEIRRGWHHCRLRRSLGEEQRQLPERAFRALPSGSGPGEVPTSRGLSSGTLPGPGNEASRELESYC
Test: cAMP pharmacological functional assay in presence of 0.1% casein, hGIPR
Assay type: cell-based
Conditions: ratio of hGIPR to hGLP1R cAMP EC50 ratios

Substance | [hGIPR/hGLP1R] EC50 Ratio
Y-Aib-EGT-αMeF(2F)-TSDYSI-Aib-LD-Orn-K((2-[2-(2-Amino-ethoxy)-ethoxy]-acetyl)2-(γGlu)-CO—(CH2)18—CO2H)AQ-Aib-EFI-(D-Glu)-YLIEGGPSSGAPPPS-NH2 (YXEGTXTSDYSIXLDXKAQXEFIXYLIEGGPSSGAPPPS; Aib, Orn, αMeF(2F), lipidated Lys, D-Glu, amide; (2)..(2) Xaa at position 2 is Aib; (6)..(6) Xaa at position 6 is alpha-methyl-Phe(2F); (13)..(13) Xaa at position 13 is Aib; (16)..(16) Xaa at position 16 is Orn; MOD_RES (17)..(17) Lys at position 17 is chemically modified by conjugation of the epsilon-amino group of the Lys side chain with (2-[2-(2-amino-ethoxy)-ethoxy]-acetyl)2-(gamma-Glu)-CO-(CH2)18- CO2H; (20)..(20) Xaa at position 20 is Aib;) [Peptide 250] | 4.34
Y-Aib-EGT-αMeF(2F)-TSDYSI-Aib-LDEK((2-[2-(2-Amino-ethoxy)-ethoxy]-acetyl)2-(γGlu)-CO—(CH2)18—CO2H)AQ-Aib-EFI-(D-Glu)-YLIEGGPSSGAPPPS-NH2 (YXEGTXTSDYSIXLDEKAQXEFIXYLIEGGPSSGAPPPS; Aib, αMeF(2F), D-Glu; lipidated K; amide; (2)..(2) Xaa at position 2 is Aib; (6)..(6) Xaa at position 6 is alpha-methyl-Phe(2F); (13)..(13) Xaa at position 13 is Aib; MOD_RES (17)..(17) Lys at position 17 is chemically modified by conjugation of the epsilon-amino group of the Lys side chain with (2-[2-(2-amino-ethoxy)-ethoxy]-acetyl)2-(gamma-Glu)-CO-(CH2)18- CO2H; (20)..(20) Xaa at position 20 is Aib; (24)..(24) Xaa at position 24 is D-Gl) [Peptide 224] | 3.32
Y-Aib-EGT-αMeF(2F)-TSDYSI-Nle-LD-Orn-K((2-[2-(2-Amino-ethoxy)-ethoxy]-acetyl)2-(γGlu)-CO—(CH2)16—CO2H)AQ-Aib-EFI-(D-Glu)-YLIEGGPSSGAPPPS-NH2 (YXEGTXTSDYSIXLDXKAQXEFIXYLIEGGPSSGAPPPS; Aib, Nle, Orn, αMeF(2F), lipidated Lys, D-Glu, amide; (2)..(2) Xaa at position 2 is Aib; (6)..(6) Xaa at position 6 is alpha-methyl-Phe(2F); (13)..(13) Xaa at position 13 is Nle; (16)..(16) Xaa at position 16 is Orn; MOD_RES (17)..(17) Lys at position 17 is chemically modified by conjugation of the epsilon-amino group of the Lys side chain with (2-[2-(2-amino-ethoxy)-ethoxy]-acetyl)2-(gamma-Glu)-CO-(CH2)16- CO2H; (20)..(20) Xaa at position 20 is Aib;) [Peptide 249] | 4.94
Y-Aib-EGT-αMeF(2F)-TSDYSI-αMeL-LD-Dab-K((2-[2-(2-Amino-ethoxy)-ethoxy]-acetyl)2-(γGlu)-CO—(CH2)16—CO2H)AQ-Aib-EFI-(D-Glu)-YLIEGGPSSGAPPPS-NH2 (YXEGTXTSDYSIXLDXKAQXEFIXYLIEGGPSSGAPPPS; Aib, αMeF(2F), αMeL, Dab, D-Glu; lipidated K; amide; (2)..(2) Xaa at position 2 is Aib; (6)..(6) Xaa at position 6 is alpha-methyl-Phe(2F); (13)..(13) Xaa at position 13 is alpha-methyl-Leu; (16)..(16) Xaa at position 16 is Dab; MOD_RES (17)..(17) Lys at position 17 is chemically modified by conjugation of the epsilon-amino group of the Lys side chain with (2-[2-(2-amino-ethoxy)-ethoxy]-acetyl)2-(gamma-Glu)-CO-(CH2)16- CO2H; (20)..(20) Xaa at positi) [Peptide 209] | 5.12
Y-Aib-EGT-αMeF(2F)-TSDYSI-αMeL-LD-Dab-K((2-[2-(2-Amino-ethoxy)-ethoxy]-acetyl)2-(γGlu)-CO—(CH2)18—CO2H)AQ-Aib-EFI-(D-Glu)-YLIEGGPSSGAPPPS-NH2 (YXEGTXTSDYSIXLDXKAQXEFIXYLIEGGPSSGAPPPS; Aib, αMeF(2F), αMeL, Dab, D-Glu; lipidated K; amide; (2)..(2) Xaa at position 2 is Aib; (6)..(6) Xaa at position 6 is alpha-methyl-Phe(2F); (13)..(13) Xaa at position 13 is alpha-methyl-Leu; (16)..(16) Xaa at position 16 is Dab; MOD_RES (17)..(17) Lys at position 17 is chemically modified by conjugation of the epsilon-amino group of the Lys side chain with (2-[2-(2-amino-ethoxy)-ethoxy]-acetyl)2-(gamma-Glu)-CO-(CH2)18- CO2H; (20)..(20) Xaa at positi) [Peptide 217] | 2.99
Y-Aib-EGT-αMeF(2F)-TSDYSI-αMeL-LD-Dap-K((2-[2-(2-Amino-ethoxy)-ethoxy]-acetyl)2-(γGlu)-CO—(CH2)16—CO2H)AQ-Aib-EFI-(D-Glu)-YLIEGGPSSGAPPPS-NH2 (YXEGTXTSDYSIXLDXKAQXEFIXYLIEGGPSSGAPPPS; Aib, αMeF(2F), αMeL, Dap, D-Glu; lipidated K; amide; (2)..(2) Xaa at position 2 is Aib; (6)..(6) Xaa at position 6 is alpha-methyl-Phe(2F); (13)..(13) Xaa at position 13 is alpha-methyl-Leu; (16)..(16) Xaa at position 16 is Dap; MOD_RES (17)..(17) Lys at position 17 is chemically modified by conjugation of the epsilon-amino group of the Lys side chain with (2-[2-(2-amino-ethoxy)-ethoxy]-acetyl)2-(gamma-Glu)-CO-(CH2)16- CO2H; (20)..(20) Xaa at positi) [Peptide 210] | 5.24
Y-Aib-EGT-αMeF(2F)-TSDYSI-αMeL-LD-Dap-K((2-[2-(2-Amino-ethoxy)-ethoxy]-acetyl)2-(γGlu)-CO—(CH2)18—CO2H)AQ-Aib-EFI-(D-Glu)-YLIEGGPSSGAPPPS-NH2 (YXEGTXTSDYSIXLDXKAQXEFIXYLIEGGPSSGAPPPS; Aib, αMeF(2F), αMeL, Dap, D-Glu; lipidated K; amide; (2)..(2) Xaa at position 2 is Aib; (6)..(6) Xaa at position 6 is alpha-methyl-Phe(2F); (13)..(13) Xaa at position 13 is alpha-methyl-Leu; (16)..(16) Xaa at position 16 is Dap; MOD_RES (17)..(17) Lys at position 17 is chemically modified by conjugation of the epsilon-amino group of the Lys side chain with (2-[2-(2-amino-ethoxy)-ethoxy]-acetyl)2-(gamma-Glu)-CO-(CH2)18- CO2H; (20)..(20) Xaa at positi) [Peptide 218] | 4.34
Y-Aib-EGT-αMeF(2F)-TSDYSI-αMeL-LD-Orn-K((2-[2-(2-Amino-ethoxy)-ethoxy]-acetyl)2-(γGlu)-CO—(CH2)16—CO2H)AQ-Aib-EFI (D-Glu)-αMeY-LIEGGPSSGAPPPS-NH2 (YXEGTXTSDYSIXLDXKAQXEFIXXLIEGGPSSGAPPPS; Aib, Orn, αMe residues, lipidated Lys, D-Glu, amide; (2)..(2) Xaa at position 2 is Aib; (6)..(6) Xaa at position 6 is alpha-methyl-Phe(2F); (13)..(13) Xaa at position 13 is alpha-methyl-Leu; (16)..(16) Xaa at position 16 is Orn; MOD_RES (17)..(17) Lys at position 17 is chemically modified by conjugation of the epsilon-amino group of the Lys side chain with (2-[2-(2-amino-ethoxy)-ethoxy]-acetyl)2-(gamma-Glu)-CO-(CH2)16- CO2H; (20)..(20) Xaa at positi) [Peptide 236] | 4.10
Y-Aib-EGT-αMeF(2F)-TSDYSI-αMeL-LD-Orn-K((2-[2-(2-Amino-ethoxy)-ethoxy]-acetyl)2-(γGlu)-CO—(CH2)16—CO2H)AQ-Aib-EFI-(D-Glu)-YLIEGGPSSGAPPPS-NH2 (YXEGTXTSDYSIXLDXKAQXEFIXYLIEGGPSSGAPPPS; Aib, Orn, αMe residues, lipidated Lys, D-Glu, amide; (2)..(2) Xaa at position 2 is Aib; (6)..(6) Xaa at position 6 is alpha-MeF(2F); (13)..(13) Xaa at position 13 is alpha-MeL; (16)..(16) Xaa at position 16 is Orn; MOD_RES (17)..(17) K at position 17 is chemically modified by conjugation of the epsilon-amino group of the K side chain with (2-[2-(2-amino-ethoxy)-ethoxy]-acetyl)2-(gamma-Glu)-CO-(CH2)16- CO2H; (20)..(20) Xaa at position 20 is Aib; (24)) [Peptide 2] | 6.63
